From paper PMC3760334 come the findings set out here.

Experiment [1] has as its target signal recognition particle (SRP), fluorescein-labeled at C421 (E. coli) (UniProt P0AGD7). The experiment can be described thus: fluorescence polarisation. A general note: Fluorescence polarisation rises when a labelled molecule tumbles more slowly, as on binding a larger partner.
Experiment [2] has as its target RNC_(EspP) bound to donor-labeled SRP (E. coli) (UniProt P0AGD7). The experiment can be described thus: FRET or BRET. In general terms: In BRET a luciferase serves as donor, and the signal depends on an acceptor being close.
The target of experiment [3] is RNC_(luciferase) bound to donor-labeled SRP (E. coli | firefly) (UniProt P0AGD7). The experiment can be described thus: FRET or BRET.
The target in experiment [4] is RNC_(2A8L) bound to donor-labeled SRP (E. coli | not stated) (UniProt P0AGD7). Briefly: FRET or BRET.
Experiment [5] has as its target RNC_(1A9L) bound to donor-labeled SRP (E. coli | not stated) (UniProt P0AGD7). Briefly: FRET or BRET.

Broadly, the Kd is the constant that tells how readily two partners part at equilibrium. A higher Kd goes with lower affinity. “RNC_(EspP): stalled ribosome-nascent chain complex with the signal sequence of EspP” came in with a Kd in experiment [1] of 0.0136 µM.

Take “RNC_(luciferase): stalled ribosome-nascent chain complex with a nascent chain of firefly luciferase (from UniProt P08659 1-550)”: the Kd in experiment [1] was found to be 0.13 µM.

With “RNC_(phoA): stalled ribosome-nascent chain complex with the signal sequence of alkaline phosphatase (phoA)”, the Kd in experiment [1] was 0.108 µM.

What is called kon is the second-order rate constant of association. A lower kon goes with slow association. As to “SRP receptor (SR), acceptor-labeled (from UniProt P10121 1-497)”, the Kd in experiment [2] was determined as 0.311 µM; in experiment [3], 2.06 µM. The figures for the kon in experiment [4] and in experiment [5] were 8.8e+06 M⁻¹ s⁻¹ and 9.9e+06 M⁻¹ s⁻¹, respectively.
